Assay: Particle size of heparin-DOCA solutions with solubilizers by electrophoretic light scattering
Format: physicochemical
Conditions: aqueous 1 mg/ml heparin-DOCA solution, solubilizer added at 0.1 mg/ml, ELS-8,000, N.D. = particles were not detected
Experimental: To measure the formation of self-assembled nanoparticles in aqueous solutions of heparin-DOCA and to observe the prevention of particle formation due to a solubilizer, the solubilizers shown in Table 1 were added at a concentration of 0.1 mg/ml to 1 mg/ml of heparin-DOCA solution, and electrophoretic light scattering spectrophotometry (ELS-8,000) was used to measure the size of particles in the solution.

For Heparin-Deoxycholic Acid [Heparin-DOCA], the “Particle Size (nm)” value was 369.5 nm and the “Particle Size (nm)” value (listed as heparin-deoxycholic acid) was 370 nm.

Reference: patent publication US20100021538A1, “PHARMACEUTICAL COMPOSITIONS CONTAINING HEPARIN DERIVATIVES” (priority 2008, published 2010)
